Results from patent US20260209376A1 (University of California, published 2026).
Changes are numbered by the printed parent chain.

B1: H8L1 (antibody, human IgG1, V domains shown)
VH: QVQLVESGGGVVQPGRSLRLSCAASGYSFTGYTMNWVRQAPGNGLEWVARINPHNGGTDYNQKFKDRFTISRDNSKNTLYLQMNSLRAEDTAVYYCARGYYYYSLDYWGQGTTVTVSS
VL: EIVLTQSPATLSLSPGERATLSCSASSSIRYIHWYQQKPGQAPRLLIYDTSNLASGTPARFSGSGSGTDFTLTISSLEPEDFAVYYCHQRNSYPWTFGQGTKVEIK
notes: humanized; also called hu128.1
B2: H8L2 (antibody, human IgG1, V domains shown)
VH: B1 VH
VL: B1 VL with L13V, K38R
notes: as for B1
B3: H8L4 (antibody, human IgG1, V domains shown)
VH: B1 VH
VL: B1 VL with L13V, K38R, T57I, Q99P, E104D
notes: as for B1
B4: H8L3 (antibody, human IgG1, V domains shown)
VH: B1 VH
VL: EIVLTQSPDFQSVTPKEKVTITCSASSSIRYIHWYQQRPDQSPKLLIYDTSNLASGVPSRFSGSGSGTDFTLTINSLEAEDAATYYCHQRNSYPWTFGQGTKVEIK
notes: as for B1

The binders below were run against TfR1 (antigen; form in the assay not stated) (human, UniProt P02786 89-760, limits assumed) (assay: assay not named in the sentence (ELISA and flow cytometry per paragraph 218)).
TfR1 (antigen; form in the assay not stated), sequence (P02786 89-760 limits assumed): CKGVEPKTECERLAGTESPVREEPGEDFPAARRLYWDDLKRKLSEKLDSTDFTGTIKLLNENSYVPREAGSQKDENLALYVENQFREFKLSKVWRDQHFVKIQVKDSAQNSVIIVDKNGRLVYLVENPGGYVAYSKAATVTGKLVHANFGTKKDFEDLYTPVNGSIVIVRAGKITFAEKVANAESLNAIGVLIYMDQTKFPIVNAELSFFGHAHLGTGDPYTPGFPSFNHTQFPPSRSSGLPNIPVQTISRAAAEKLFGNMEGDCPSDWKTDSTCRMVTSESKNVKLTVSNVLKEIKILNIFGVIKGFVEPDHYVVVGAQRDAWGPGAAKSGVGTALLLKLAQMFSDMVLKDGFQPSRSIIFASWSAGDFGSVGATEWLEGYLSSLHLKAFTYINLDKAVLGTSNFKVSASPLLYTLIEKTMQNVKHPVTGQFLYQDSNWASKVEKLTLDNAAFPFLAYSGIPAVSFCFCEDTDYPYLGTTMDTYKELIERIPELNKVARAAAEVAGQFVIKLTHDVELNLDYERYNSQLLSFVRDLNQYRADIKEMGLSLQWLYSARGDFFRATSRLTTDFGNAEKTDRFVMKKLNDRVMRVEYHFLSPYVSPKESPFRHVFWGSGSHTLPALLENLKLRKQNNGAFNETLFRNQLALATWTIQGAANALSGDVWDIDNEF

Binding result, no binding:
B1
B2
B3
B4
